Among the data in article PMC8517284 are fold reduction of the co-immunoprecipitation in the presence of cRGD and Tetrac values, retold here.

The test concerns the target FLAG-tagged CysD3 (DIO3, NM_001362, selenocysteine codon replaced with cysteine) (UniProt P55073). Kind of test: co-IP.

FLAG-tagged CysD3 (DIO3, NM_001362, selenocysteine codon replaced with cysteine), sequence (P55073 whole entry): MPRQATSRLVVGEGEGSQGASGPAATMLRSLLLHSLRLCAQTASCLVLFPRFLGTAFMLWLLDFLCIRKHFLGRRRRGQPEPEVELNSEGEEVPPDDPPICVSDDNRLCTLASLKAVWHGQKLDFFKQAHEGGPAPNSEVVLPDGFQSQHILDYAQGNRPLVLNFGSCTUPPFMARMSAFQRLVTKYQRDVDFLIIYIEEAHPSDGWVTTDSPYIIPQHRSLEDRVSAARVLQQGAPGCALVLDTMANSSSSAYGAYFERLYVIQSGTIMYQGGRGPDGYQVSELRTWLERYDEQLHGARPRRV
Myc-tagged β3 integrin (NM_000212.2), sequence (P05106 27-788): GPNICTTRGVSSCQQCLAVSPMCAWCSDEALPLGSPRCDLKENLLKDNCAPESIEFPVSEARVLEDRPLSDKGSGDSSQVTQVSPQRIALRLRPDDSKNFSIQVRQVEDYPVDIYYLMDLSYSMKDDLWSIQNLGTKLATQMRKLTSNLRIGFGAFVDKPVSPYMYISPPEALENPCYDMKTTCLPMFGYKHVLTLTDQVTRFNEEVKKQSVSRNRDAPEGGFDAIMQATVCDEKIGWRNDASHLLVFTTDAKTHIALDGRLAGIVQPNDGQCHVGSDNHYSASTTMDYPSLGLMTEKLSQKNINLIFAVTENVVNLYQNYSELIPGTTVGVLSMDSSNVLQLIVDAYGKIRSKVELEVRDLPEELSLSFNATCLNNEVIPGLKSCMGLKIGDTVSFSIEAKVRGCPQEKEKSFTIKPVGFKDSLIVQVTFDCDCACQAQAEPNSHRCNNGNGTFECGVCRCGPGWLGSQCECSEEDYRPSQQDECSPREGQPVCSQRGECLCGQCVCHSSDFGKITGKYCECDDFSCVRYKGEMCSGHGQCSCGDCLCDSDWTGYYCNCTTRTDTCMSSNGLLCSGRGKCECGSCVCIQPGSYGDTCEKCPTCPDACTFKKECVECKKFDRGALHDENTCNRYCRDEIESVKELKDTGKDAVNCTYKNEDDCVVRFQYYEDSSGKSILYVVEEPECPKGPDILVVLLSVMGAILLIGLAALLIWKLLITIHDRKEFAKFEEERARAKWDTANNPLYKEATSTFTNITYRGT

On to “Myc-tagged β3 integrin (NM_000212.2) (from UniProt P05106-1 27-788) (receptor)”, for which the fold reduction of the co-immunoprecipitation in the presence of cRGD and Tetrac was above 2 fold.
